From the nanobody polyreactivity screen of Harvey et al. (2022) come the findings set out here.

A short description of the data set: yeast display, Sf9 membrane polyspecificity reagent, FACS + sequencing; frameworks hold sequencing errors. Put shortly:
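Synthetic nanobody libraries on Saccharomyces cerevisiae BJ5465 were galactose-induced for 36–48 hours, stained 1 hour at 4 °C with 10% biotinylated, detergent-solubilized Sf9 membrane reagent and enriched on streptavidin microbeads. FACS then separated cells into low and high (top ~1%) gates by anti-HA (expression) and streptavidin (reagent binding) fluorescence. Genes were colony-PCR amplified, MiSeq 2 × 250 sequenced and CDR-length filtered. A clone's polyreactivity label is that of its gate of origin.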
On to “QVQLVESGGGLVQAGGSLRLSCAASGRTLYGYAMGWYRQAPGKERELVASIRSGGSTNYADSVKGSFTISRDNAKNTVYFQMNSLKQEYTAVYYCAAEPYYSYGYYHAHGRDVGYWGQGTQVTVSS”, for which the “polyreactivity (PSR sort gate)” value is reported as “low polyreactivity”. “QVQLVESGGGLVQAGGSLRLSCAASGRTLYKYAMGWYRQAPGKERELVATISSGGRTNYADSVKGRFTISRDNAKNPVYLQMNSLKPEDTAVYYCAADVVRYYYTYDYWGQGTQVTVSS”: the “polyreactivity (PSR sort gate)” value is “low polyreactivity”. Under “QVQLVESGGGLVQAGGSLRLSCAASGRTLYRNAMGWDRQAPGKERELVATITSGGSTYYADSVKGRFTISRDTAKNTVYLLMNSLKPEDTAVYYCNADWYWRVYWGQGTQVTVSS” stands “high polyreactivity”. In the case of “QVQLVESGGGLVQAGGSLRLSCAASGRTMDFNVMGWYRQAPGKERELVAAITWSGGSTYYSDSVKGRFTISRDNAKNTVYLQMNSLKPVDTAVYYCAKDLWYWARRYDYWGQGTQVTVSS” it was “high polyreactivity”; in that of “QVQLVESGGGLVQAGGSLRLSCAASGRTNCEYTMGWYRKAPGKERELVAVITKSGGSTYYADSVKGRFTISRDNAKNTVYLQMNSLKPEDTAVYDCAARRYYYLNSRYGYWGQGTQVTVSS”, “high polyreactivity”; in that of “QVQLVESGGGLVQAGGSLRLSCAASGRTRFYAMGWYRQPPGKEREMVAAISGSSGSTYYADSVKGRFTISRDNAKNTVYLQMNSLKPEDTAVYYCAADFWRFYYEYDYWGQGTQVTVSS”, “low polyreactivity”. Under “QVQLVESGGGLVQAGGSLRLSCAASGRTRHGYTMGWYRQAPGKERELVATISSIGGSTYYADSLKGRFTISRDNAKNTVYLQMNSLKPEDTAVYYSNRGRARVIFSGMDYWGQGTQVTVSS” stands “low polyreactivity”; under “QVQLVESGGGLVQAGGSLRLSCAASGRTSFHYAMGWYRQAPGKERELVAAINWNGGRTYYADSVKGRFTISRDNAKNTVYLQMNSLKPEDTAVYYCAARLSYLGGYDYWGQGTQVTVSS”, “high polyreactivity”.

Regarding “QVQLVESGGGLVQAGGSLRLSCAASGRTSFYYGMGWYRQAPGKERELVAGINYGGGSTYYADSVKGRFTISRDNAKNTVYLQMNSLKPEDTAVYYCNAGDGPDEEYDYWGQGTQVTVSS”, the “polyreactivity (PSR sort gate)” value is given as “low polyreactivity”. In the case of “QVQLVESGGGLVQAGGSLRLSCAASGRTSGAYAMGWYRQAPGKERELVAAISIAGITYADSVKGRFTISRDNAKNTVYLQMNSLKPEDTAVYYCAAYYLFRPYAQYDYWGQGTQVTVSS” it was “low polyreactivity”; in that of “QVQLVESGGGLVQAGGSLRLSCAASGRTSGGYAMGWYRQAPGNERELVASITWSGDTTYYADSVTGRFTISRDNAKNTVYLQMNSLKPEDTAVYYCATIPGYVYYWQYKYDYWGQGTQVTVSS”, “low polyreactivity”; in that of “QVQLVESGGGLVQAGGSLRLSCAASGRTSGINAMGWYRQAPGKERELVAAISSGGRTYYADSVKGRFTISRDNAKNTVYLQMNSLKPEDTAVYYCAAVIHWSLYRRMEYWGQGTQVTVSS”, “high polyreactivity”. Under “QVQLVESGGGLVQAGGSLRLSCAASGRTSGKNAMGSYRQATRKEREMVAAISSSGGSTYYADSVKGRFTISRDNAKNTVYLQMNSLKPEDTAVYYCAAKYFRKYSQIGPDMYYWGQGTQVTVSS” stands “high polyreactivity”; under “QVQLVESGGGLVQAGGSLRLSCAASGRTSIPYARGWYRQAPGKERELVAAISYSVGRTYYADSVKGRFTISRDNAKNTVYLQMNSLKPEDTAVYYCAAEYNGVVRDYDYWGQGTQVTVSS”, “low polyreactivity”. Consider “QVQLVESGGGLVQAGGSLRLSCAASGRTSIYNTMGWYRQAPGKERELVAAINPSGSTNYADSVKGRFTISRDNAKNTVYLQMNSLKPEDTAVYYCAAVVKWWGQSRYDYWGQGTQVTVSS”, for which the “polyreactivity (PSR sort gate)” value is recorded as “high polyreactivity”. On to “QVQLVESGGGLVQAGGSLRLSCAASGRTSKYYAMGWYRQAPGKERELVAAITGTGGSTYYADSVKGRFTISRDNAKNTVYLQMNSLKPEDTAVYYCAALRKSYTYDSWGQGTQVTVSS”, for which the “polyreactivity (PSR sort gate)” value is “high polyreactivity”. In the case of “QVQLVESGGGLVQAGGSLRLSCAASGRTSLRYAMGWYRQAPGKERELVAAITSSGATTYYADSVKGRFTISRDNAKNTVYLQMNSLKPEDTAVYYCAAVYSAKRGSGGFGYWGQGTQVTVSS” it was “high polyreactivity”; in that of “QVQLVESGGGLVQAGGSLRLSCAASGRTSPAYAMGWYRQAPGKERELVAAISRSGGRTNYADSVKGRFTISRDNAKNTVYLQMNSLKPEDTAVYYCAVPYWYLGDNSGHDPYYYWGQGTQVTVSS”, “high polyreactivity”. In the case of “QVQLVESGGGLVQAGGSLRLSCAASGRTSRSNAMGWYRQAPGKERELVAAISSGGSTYADSVKGRFTISRDNAKNTVYLQMNSLKPEDTAVYYCAARYRTRYAGYNYWGQGTQVTVSS” it was “high polyreactivity”. Consider “QVQLVESGGGLVQAGGSLRLSCAASGRTSRSYTMGWYRQSPGKERELVAAITRGGRTYYADSVKGRFTISRDNAKNTVYLQMNSLKPEDTAVYYCATDRVQSYGYWGQGTQVTVSS”, for which the “polyreactivity (PSR sort gate)” value is listed as “low polyreactivity”. Turning to “QVQLVESGGGLVQAGGSLRLSCAASGRTSSANVMGGYRQAPGKDRELVAAISWSGGSTYYADSVKGRFTISRDNAKNTVYLQMNSRKPEDTAVYYCAADYYKYYYGGDQLSITRYDYWGQGTQVTVSS”, the “polyreactivity (PSR sort gate)” value is recorded as “low polyreactivity”.

For the sequence “QVQLVESGGGLVQAGGSLRLSCAASGRTSSSNAMGWYRQAPGKERELVATISRTGSTYYADSVKGRFTISRDNAKNTVYLQMNSLKPEDTSVYYCNRYFSEALLHGSCYNRYYYWGQGTQVTVSS”, the “polyreactivity (PSR sort gate)” value was “low polyreactivity”. Under “QVQLVESGGGLVQAGGSLRLSCAASGRTSVINAMGWYRQAPGKERELVATITWSGASTYYADSVKGRFTISRDNAKNTLYLQMNSLKPEVTAVYYCATDSAQYGYDYWGQGTQVTVSS” stands “low polyreactivity”; under “QVQLVESGGGLVQAGGSLRLSCAASGRTSVKYAMGWYRQAPGKERELVAAITYRGSSTYYADSVKGRFTISRDNAKNTVYLQMNSLKPEDTAVYYCAARPPLSGRYGYYYWGQGTQVTVSS”, “high polyreactivity”; under “QVQLVESGGGLVQAGGSLRLSCAASGRTSVLYAMGWYRQAPGKERELVAAISRDGSTNYADSVKGRFTISRDNAKNTVYLQMNSLKPEDTAVYYCAAEVRGSYYLTGYDYWGQGTQVTVSS”, “high polyreactivity”. Under “QVQLVESGGGLVQAGGSLRLSCAASGRTSVRNAMGWYRQAPGKERELVAAISNGGRTNYADSVKGRFTISRDNAKNTVYLQMNSLKPEDTAVYYCAARGFWLYYHGGVRSGYDYWGQGTQVTVSS” stands “high polyreactivity”. Consider “QVQLVESGGGLVQAGGSLRLSCAASGRTSVRYAMGWYRQAPGKERELVAAISWSGGSTYYADSVKGRFTISRDNAKNTVYLQMNSLKPEDTAVYDCNAQHARGYYYWGQGTQVTVSS”, for which the “polyreactivity (PSR sort gate)” value was “low polyreactivity”. In the case of “QVQLVESGGGLVQAGGSLRLSCAASGRTSWVYAMGWYRQAPGKERELVASIRKRTVVYADSVKGRFTISRDNAKNTVYLQMNSLKPEDTAVYYCNADTTFYGYRTYRPENYWGQGTQVTVSS” it was “high polyreactivity”; in that of “QVQLVESGGGLVQAGGSLRLSCAASGRTSYINAMGWYRPAPGKERELVAAITVRAGRTYYADSVKGRFTISRDNANKTVYLQMNSLKPEDTAVYYCAAGVSEGSGDLYYWGQGTQVTVSS”, “low polyreactivity”; in that of “QVQLVESGGGLVQAGGSLRLSCAASGRTSYRDAMGWYRQAPGKESEFVAAISKSGTSTYYADSVKGRFTISRDNAKNTVYVQMYRLKPEDTAVYYCAAITGVGLRVNSGIGFYYWGQGTQVTVSS”, “high polyreactivity”. In the case of “QVQLVESGGGLVQAGGSLRLSCAASGRTSYWYAMGWYRQAPGKERELVAVISSGGSTYYADSVKGRFTISRDNAKNTVYLQMNSLKPEDTAVYYCNAVVGRWFPYNLSDYWGQGTQVTVSS” it was “low polyreactivity”; in that of “QVQLVESGGGLVQAGGSLRLSCAASGRTVPYNAMGWYRQAPGKESELVAAISGRGGSTYYADSVKGRFTISRDNAKKTVYLQMTSLKPEDTAVYYCAARLPWSYYRTQGYNYWGQGTQVTVSS”, “high polyreactivity”. Under “QVQLVESGGGLVQAGGSLRLSCAASGRTVRRYARGWYRQAPGKERELVATIRSGDNTNYADSVKGRFTISRDNAKNTVYLQMNSLKPEDTAVYYCNRSPKSGQVTYLYSVNAHYDYWGQGTQVTVSS” stands “low polyreactivity”. Consider “QVQLVESGGGLVQAGGSLRLSCAASGRTVSYYAMGWYRQAPGKEREFVAAISSSGGSTNYADSVKGRFTISRDNAKNTVYLQMNSLKPEDTAVYYCNAGSGYTGVYRWYYWRYDYWGQGTQVTVSS”, for which the “polyreactivity (PSR sort gate)” value was “low polyreactivity”. In the case of “QVQLVESGGGLVQAGGSLRLSCAASGRTYNGYVMGGYRQAPGTEREFVAVINWSGGNTYDADSVKGRFTISRDNAKNTVSLQMNRLKPDDTAVYYCAPRRVRSYAYDYWGQGTQVTVSS” it was “high polyreactivity”; in that of “QVQLVESGGGLVQAGGSLRLSCAASGRTYRSNVMGWYRQAPGKERELVASITWSGGTTYYADSVKVRFTISRDNAKNTVYLQMNSLKPEDTAVYYCNAADERSQGWVGYDHWGQCTQVTVSS”, “low polyreactivity”; in that of “QVQLVESGGGLVQAGGSLRLSCAASGRTYVYNAMGLYRHAPGKERELVAGITNGGSTNYADSVKGRFTISRDNAKNTVYLQMNSLKPEDTAVYYCNRDVKVLYASSHSPYGYDHWGQGTQVTVSS”, “low polyreactivity”.

As for “QVQLVESGGGLVQAGGSLRLSCAASGRTYVYNAMGWYRQAPGKERELVAAISSSGGSTRYADSVKGRFTISRDNAKNTVYLQMNSVKPEDTAVYYCNRLRYSNRYDSWGQGTQVTVSS”, the “polyreactivity (PSR sort gate)” value was “high polyreactivity”. In the case of “QVQLVESGGGLVQAGGSLRLSCAASGRTYYNNAMGWYRQAPGKEREFVAAISASGGRTRYADSVKGRFTISRDNAKNTVYLQMNSLKPEDTAVYYCAAAGTSTLYWGQGTQVTVSS” it was “high polyreactivity”; in that of “QVQLVESGGGLVQAGGSLRLSCAASGRTYYYNAMGWYRQAPGKERELVAVISWDDGSTYYADSVKGRFTISRDKAMNSVYLQLNSLKPEDTAVYYCAAYDYLDYADDYWGQGTQVTVSS”, “low polyreactivity”.
